Laboratory results published in patent publication US20220162341A1 (published 2022).

T1: ASPH (aspartyl (asparaginyl) β-hydroxylase) (Homo sapiens (Human)) (UniProt Q12797)
T1 sequence: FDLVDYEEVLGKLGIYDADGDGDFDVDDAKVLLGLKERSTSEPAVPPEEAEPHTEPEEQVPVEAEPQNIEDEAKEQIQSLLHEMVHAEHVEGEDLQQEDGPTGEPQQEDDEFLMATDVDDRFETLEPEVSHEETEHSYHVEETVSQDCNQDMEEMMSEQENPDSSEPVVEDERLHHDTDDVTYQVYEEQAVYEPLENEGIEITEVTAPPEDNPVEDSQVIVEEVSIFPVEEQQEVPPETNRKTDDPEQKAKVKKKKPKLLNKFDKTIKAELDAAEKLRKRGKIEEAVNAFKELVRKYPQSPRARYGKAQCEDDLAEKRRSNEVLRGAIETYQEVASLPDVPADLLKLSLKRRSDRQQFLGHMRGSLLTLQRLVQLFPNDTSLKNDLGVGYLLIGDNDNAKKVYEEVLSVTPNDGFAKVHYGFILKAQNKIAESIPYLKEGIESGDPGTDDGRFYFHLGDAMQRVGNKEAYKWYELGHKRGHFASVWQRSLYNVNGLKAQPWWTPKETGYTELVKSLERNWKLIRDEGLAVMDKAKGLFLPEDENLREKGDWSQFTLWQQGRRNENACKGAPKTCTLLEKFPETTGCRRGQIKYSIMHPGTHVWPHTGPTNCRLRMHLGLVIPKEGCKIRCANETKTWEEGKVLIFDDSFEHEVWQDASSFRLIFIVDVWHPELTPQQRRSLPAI

T2: ASPH (aspartyl (asparaginyl) β-hydroxylase) (Homo sapiens (Human), UniProt Q12797 75-758, limits assumed)
T2 construct: The antibodies were raised against a peptide of human ASPH; also called the ASPH protein
T2 sequence: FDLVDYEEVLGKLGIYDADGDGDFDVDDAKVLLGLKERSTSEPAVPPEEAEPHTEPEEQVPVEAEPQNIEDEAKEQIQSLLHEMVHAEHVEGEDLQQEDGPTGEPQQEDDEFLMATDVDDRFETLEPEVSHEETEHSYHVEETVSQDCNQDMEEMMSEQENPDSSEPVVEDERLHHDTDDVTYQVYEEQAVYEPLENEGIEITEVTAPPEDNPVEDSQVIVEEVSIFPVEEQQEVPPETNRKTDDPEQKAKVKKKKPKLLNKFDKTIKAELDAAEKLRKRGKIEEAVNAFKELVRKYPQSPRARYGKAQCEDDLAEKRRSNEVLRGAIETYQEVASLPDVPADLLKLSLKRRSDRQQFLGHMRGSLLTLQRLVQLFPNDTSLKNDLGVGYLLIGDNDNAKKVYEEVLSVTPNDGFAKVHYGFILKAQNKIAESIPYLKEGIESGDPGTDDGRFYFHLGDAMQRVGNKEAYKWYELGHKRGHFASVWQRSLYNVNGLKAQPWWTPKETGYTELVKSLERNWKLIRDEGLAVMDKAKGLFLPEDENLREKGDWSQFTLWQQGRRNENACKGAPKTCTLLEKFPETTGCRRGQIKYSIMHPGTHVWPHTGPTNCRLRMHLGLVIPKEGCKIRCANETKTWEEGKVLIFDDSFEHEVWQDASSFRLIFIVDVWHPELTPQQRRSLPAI


Experiments:
[1] = biological target: T1, ASPH (aspartyl (asparaginyl) β-hydroxylase) (Homo sapiens (Human)); assay: SPR (SensiQ Pioneer), antibody captured via Protein G, ASPH as analyte
[2] = biological target: T2, ASPH (aspartyl (asparaginyl) …); assay: as above

Row | Binder | Kd [1] [µM] | koff [1] [s⁻¹] | kon [1] [M⁻¹ s⁻¹] | Kd [2] [µM] | kon [2] [M⁻¹ s⁻¹]
1 | 5H4/5K3 (antibody, V domains shown) VH: QSLEESGGDLVKPGASLTLTCKASGFDFSSNAMCWVRQAPGKGPEWIACIDNGDGSTDYATWAKGRFTISKTSSTTVTLQMTSLTAADTATYFCTRNFNLWGQGTLVTVSS VL: AQVLTQTASSVSAAVGGTVTISCQSSQSVYDNNRLAWFQQKPGQPPKLLIYETSKLASGVPLRFKGSGSGTQFTLTISDLECDDAATYYCLGSYSGYIYTFGGGTEVVVKG | 0.144 | 0.00243 | 16800 |  | 
2 | 5H1/5K1 (antibody, V domains shown) VH: QSLEESGGDLVKPGASLTLTCKASGFDFSSNAMCWVRQAPGKGPEWIACIDNGDGSTDYATWAKGRFTISKTSSTTVTLQMTSLTAADTATYFCTRNFNLWGQGTLVTVSS VL: AQVLTQTASSVSAAVGGTVTISCQSSQSVYDNNRLAWFQQKPGQPPKLLIYETSKLASGVPLRFKGSGSGTQFTLTISDLECDDAATYYCLGSYSGYIYTFGGGTEVVVK |  |  |  | 0.118 | 20400
